The chains are these.
T1: Human LRRC15 Protein, His Tag (Acro Biosystems) (human, UniProt Q8TF66 22-538, limits assumed)
T1 construct: not shown: His tag
T1 sequence (looked up): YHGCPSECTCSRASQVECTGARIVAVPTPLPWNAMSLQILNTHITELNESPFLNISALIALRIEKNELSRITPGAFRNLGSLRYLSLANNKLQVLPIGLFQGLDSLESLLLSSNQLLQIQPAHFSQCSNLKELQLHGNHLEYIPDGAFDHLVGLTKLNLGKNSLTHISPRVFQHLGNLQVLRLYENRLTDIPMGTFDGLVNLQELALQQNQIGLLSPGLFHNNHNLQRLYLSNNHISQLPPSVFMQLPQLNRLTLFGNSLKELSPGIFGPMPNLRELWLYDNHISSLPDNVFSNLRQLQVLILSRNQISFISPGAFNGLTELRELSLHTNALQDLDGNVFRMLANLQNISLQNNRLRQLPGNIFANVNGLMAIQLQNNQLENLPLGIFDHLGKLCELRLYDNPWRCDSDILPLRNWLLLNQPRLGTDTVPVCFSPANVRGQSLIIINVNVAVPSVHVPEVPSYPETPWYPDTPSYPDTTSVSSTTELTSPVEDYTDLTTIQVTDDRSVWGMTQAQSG

T2: Human LRRC15 Protein, His Tag (Acro Biosystems) (human, UniProt Q8TF66 22-538, limits assumed)
T2 construct: Bought protein with His tag
T2 sequence (looked up): T1 sequence (looked up)

B1: MYT7926 (antibody, V domains shown)
VH: QQQLVESGGGLVKPGASLTLTCKASGFSFSGSYWICWVRQAPGKGLEWIGCINGGSLDITYYASWAKGRFTISKASSTTVTLQKTSLTAADTATYFCASDTSYTAYGNFYFNLWGPGTLVTVSS
VL: AQVLTQTASPVSAAVGGTVTINCHSSQSVLNNNWLAWYQQKPGQPPKLLIYDASSLASGVPSRFKGSGSGTQFTLTISDLESDDAATYYCQGEFSCGSADCNAFGGGTEVVVKG
notes: tested as culture supernatant; also called 24D9 VL Q24H
B2: MYT7945 (antibody, V domains shown)
VH: B1 VH
VL: B1 VL with H24Q, S58H
notes: tested as culture supernatant; also called 24D9 VL S58H
B3: MYT7938 (antibody, V domains shown)
VH: B1 VH
VL: B1 VL with H24Q, A36H
notes: tested as culture supernatant; also called 24D9 VL A36H
B4: MYT7941 (antibody, V domains shown)
VH: B1 VH
VL: B1 VL with H24Q, S54H
notes: tested as culture supernatant; also called 24D9 VL S54H
B5: MYT7937 (antibody, V domains shown)
VH: B1 VH
VL: B1 VL with H24Q, L35H
notes: tested as culture supernatant; also called 24D9 VL L35H
B6: MYT7933 (antibody, V domains shown)
VH: B1 VH
VL: B1 VL with H24Q, N31H
notes: also called 24D9 VL N31H
B7: MYT7942 (antibody, V domains shown)
VH: B1 VH
VL: B1 VL with H24Q, S55H
notes: tested as culture supernatant; also called 24D9 VL S55H
B8: MYT7949 (antibody, V domains shown)
VH: B1 VH
VL: B1 VL with H24Q, F94H
notes: tested as culture supernatant; also called 24D9 VL F94H
B9: MYT7947 (antibody, V domains shown)
VH: B1 VH
VL: B1 VL with H24Q, G92H
notes: tested as culture supernatant; also called 24D9 VL G92H
B10: MYT7930 (antibody, V domains shown)
VH: B1 VH
VL: B1 VL with H24Q, S28H
notes: tested as culture supernatant; also called 24D9 VL S28H
B11: MYT7946 (antibody, V domains shown)
VH: B1 VH
VL: B1 VL with H24Q, Q91H
notes: tested as culture supernatant; also called 24D9 VL Q91H
B12: MYT7932 (antibody, V domains shown)
VH: B1 VH
VL: B1 VL with H24Q, L30H
notes: tested as culture supernatant; also called 24D9 VL L30H
B13: MYT7940 (antibody, V domains shown)
VH: B1 VH
VL: B1 VL with H24Q, A53H
notes: tested as culture supernatant; also called 24D9 VL A53H
B14: MYT7929 (antibody, V domains shown)
VH: B1 VH
VL: B1 VL with H24Q, Q27H
notes: tested as culture supernatant; also called 24D9 VL Q27H
B15: MYT7927 (antibody, V domains shown)
VH: B1 VH
VL: B1 VL with H24Q, S25H
notes: tested as culture supernatant; also called 24D9 VL S25H
B16: MYT7934 (antibody, V domains shown)
VH: B1 VH
VL: B1 VL with H24Q, N32H
notes: tested as culture supernatant; also called 24D9 VL N32H
B17: MYT7943 (antibody, V domains shown)
VH: B1 VH
VL: B1 VL with H24Q, L56H
notes: tested as culture supernatant; also called 24D9 VL L56H
B18: MYT7939 (antibody, V domains shown)
VH: B1 VH
VL: B1 VL with H24Q, D52H
notes: tested as culture supernatant; also called 24D9 VL D52H
B19: MYT7944 (antibody, V domains shown)
VH: B1 VH
VL: B1 VL with H24Q, A57H
notes: tested as culture supernatant; also called 24D9 VL A57H
B20: MYT7936 (antibody, V domains shown)
VH: B1 VH
VL: B1 VL with H24Q, W34H
notes: tested as culture supernatant; also called 24D9 VL W34H
B21: MYT7928 (antibody, V domains shown)
VH: B1 VH
VL: B1 VL with H24Q, S26H
notes: tested as culture supernatant; also called 24D9 VL S26H
B22: MYT7931 (antibody, V domains shown)
VH: B1 VH
VL: B1 VL with H24Q, V29H
notes: tested as culture supernatant; also called 24D9 VL V29H
B23: MYT7935 (antibody, V domains shown)
VH: B1 VH
VL: B1 VL with H24Q, N33H
notes: also called 24D9 VL N33H
B24: MYT7948 (antibody, V domains shown)
VH: B1 VH
VL: B1 VL with H24Q, E93H
notes: tested as culture supernatant; also called 24D9 VL E93H
B25: MYT7898 (antibody, V domains shown)
VH: B1 VH with L57H
VL: B1 VL with H24Q
notes: rabbit 24D9 VH L57H; chimeric, human constant regions
B26: MYT7908 (antibody, V domains shown)
VH: B1 VH with K67H
VL: B1 VL with H24Q
notes: rabbit 24D9 VH K67H; chimeric, human constant regions
B27: MYT7902 (antibody, V domains shown)
VH: B1 VH with Y61H
VL: B1 VL with H24Q
notes: rabbit 24D9 VH Y61H; chimeric, human constant regions
B28: MYT7911 (antibody, V domains shown)
VH: B1 VH with S99H
VL: B1 VL with H24Q
notes: rabbit 24D9 VH S99H; chimeric, human constant regions
B29: MYT7901 (antibody, V domains shown)
VH: B1 VH with T60H
VL: B1 VL with H24Q
notes: rabbit 24D9 VH T60H; chimeric, human constant regions
B30: MYT7907 (antibody, V domains shown)
VH: B1 VH with A66H
VL: B1 VL with H24Q
notes: rabbit 24D9 VH A66H; chimeric, human constant regions
B31: MYT7906 (antibody, V domains shown)
VH: B1 VH with W65H
VL: B1 VL with H24Q
notes: rabbit 24D9 VH W65H; chimeric, human constant regions
B32: MYT7909 (antibody, V domains shown)
VH: B1 VH with G68H
VL: B1 VL with H24Q
notes: rabbit 24D9 VH G68H; chimeric, human constant regions
B33: MYT7899 (antibody, V domains shown)
VH: B1 VH with D58H
VL: B1 VL with H24Q
notes: rabbit 24D9 VH D58H; chimeric, human constant regions
B34: MYT7904 (antibody, V domains shown)
VH: B1 VH with A63H
VL: B1 VL with H24Q
notes: rabbit 24D9 VH A63H; chimeric, human constant regions
B35: MYT7910 (antibody, V domains shown)
VH: B1 VH with A98H
VL: B1 VL with H24Q
notes: rabbit 24D9 VH A98H; chimeric, human constant regions
B36: MYT7905 (antibody, V domains shown)
VH: B1 VH with S64H
VL: B1 VL with H24Q
notes: rabbit 24D9 VH S64H; chimeric, human constant regions
B37: MYT7903 (antibody, V domains shown)
VH: B1 VH with Y62H
VL: B1 VL with H24Q
notes: rabbit 24D9 VH Y62H; chimeric, human constant regions
B38: MYT7900 (antibody, V domains shown)
VH: B1 VH with I59H
VL: B1 VL with H24Q
notes: rabbit 24D9 VH I59H; chimeric, human constant regions

Numbering of substitutions follows the chain as printed. Names and notes keep the numbering of the source.

In the first experiment the target is T1, Human LRRC15 Protein, His Tag (Acro …). The experiment can be described thus: BLI; dissociation pH 7.4 black, pH 5.4 grey [D00016 FIG. 3B].
With B1, the binding result is on record as “binds”.

In the case of B2, the binding result is listed as “binds”.

With B3, the binding result was “no binding (tested: 50 nM LRRC15)”.

B4: the binding result is reported as “binds”.

With B5, the binding result was “binds”. B6: the binding result is given as “binds”. The same measure, in the same setting: the value for B7 was “binds”. Same read-out and setting: under B8 stands “binds”.

B9: the binding result is “no binding (tested: 50 nM LRRC15)”. With B10, the binding result is on record as “binds”. Still for that read-out and setting: under B11 stands “binds”. On to B12, for which the binding result is given as “no binding (tested: 50 nM LRRC15)”. Same read-out and setting: under B13 stands “binds”. The same measure, in the same setting: the value for B14 was “binds”. Take B15: the binding result is “binds”. On the same count and under the same terms, under B16 stands “binds”. Consider B17, for which the binding result is listed as “binds”. Consider B18, for which the binding result was “no binding (tested: 50 nM LRRC15)”. The same measure, in the same setting: the value for B19 was “binds”. In the case of B20, the binding result is listed as “no binding (tested: 50 nM LRRC15)”. In the case of B21, the binding result is “binds”.

For the molecule B22, the binding result was “no binding (tested: 50 nM LRRC15)”. In the case of B23, the binding result was “binds”. With B24, the binding result is “no binding (tested: 50 nM LRRC15)”.

In another experiment the target is T2, Human LRRC15 Protein, His Tag (Acro …). The experiment can be described thus: BLI; dissociation pH 7.4 black, pH 5.4 grey [1/2); D00013 FIG. 2B (1/2].
On to B25, for which the binding result is given as “binds”. On the same count and under the same terms, the value for B26 was “binds”; that for B27 was “binds”. B28: the binding result is “no binding (tested: 50 nM LRRC15)”. Take B29: the binding result was “binds”. Take B30: the binding result was “binds”.

Regarding B31, the binding result was “binds”.

Regarding B32, the binding result is reported as “binds”. The same measure, in the same setting: under B33 stands “binds”. Still for that read-out and setting: the value for B34 was “binds”; that for B35 was “binds”; that for B36 was “binds”. Same read-out and setting: under B37 stands “binds”.

As to B38, the binding result is “binds”.

(Values after US20250352661A1 (MYTHIC THERAPEUTICS, published 2025).)
